Reference: article PMC3936710
Where “and” joins values, the source holds several entries; their conditions need not be identical. Identical values can stand only once.

Assays:
TRF2ΔB [1] = biological target: T1, TRF2ΔB (UniProt Q15554); assay: AFM; conditions: linear T270; Tightrope assays at 75-225 mM ionic strength (buffer, pH and temperature not in the material); AFM samples diluted 10-fold in 25 mM NaOAc, 25 mM HEPES-KOH pH 7.
T1 sequence: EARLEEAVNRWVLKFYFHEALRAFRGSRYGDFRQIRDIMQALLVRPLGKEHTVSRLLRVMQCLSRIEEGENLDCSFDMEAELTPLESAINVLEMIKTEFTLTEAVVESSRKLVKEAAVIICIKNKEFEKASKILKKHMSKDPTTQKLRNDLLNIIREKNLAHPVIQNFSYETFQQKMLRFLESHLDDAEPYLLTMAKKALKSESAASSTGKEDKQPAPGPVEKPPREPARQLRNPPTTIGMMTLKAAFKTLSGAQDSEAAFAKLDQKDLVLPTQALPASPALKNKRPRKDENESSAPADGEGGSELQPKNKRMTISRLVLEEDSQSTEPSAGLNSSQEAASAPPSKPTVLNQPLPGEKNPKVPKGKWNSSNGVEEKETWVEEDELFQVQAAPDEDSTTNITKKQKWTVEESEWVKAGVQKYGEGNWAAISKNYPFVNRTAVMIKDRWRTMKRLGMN

TRF1 = biological target: T2, TRF1 (UniProt P54274); assay: single-molecule DNA tightrope; conditions: Tightrope assays at 75-225 mM ionic strength (buffer, pH and temperature not in the material); AFM samples diluted 10-fold in 25 mM NaOAc, 25 mM HEPES-KOH pH 7.
T2 sequence: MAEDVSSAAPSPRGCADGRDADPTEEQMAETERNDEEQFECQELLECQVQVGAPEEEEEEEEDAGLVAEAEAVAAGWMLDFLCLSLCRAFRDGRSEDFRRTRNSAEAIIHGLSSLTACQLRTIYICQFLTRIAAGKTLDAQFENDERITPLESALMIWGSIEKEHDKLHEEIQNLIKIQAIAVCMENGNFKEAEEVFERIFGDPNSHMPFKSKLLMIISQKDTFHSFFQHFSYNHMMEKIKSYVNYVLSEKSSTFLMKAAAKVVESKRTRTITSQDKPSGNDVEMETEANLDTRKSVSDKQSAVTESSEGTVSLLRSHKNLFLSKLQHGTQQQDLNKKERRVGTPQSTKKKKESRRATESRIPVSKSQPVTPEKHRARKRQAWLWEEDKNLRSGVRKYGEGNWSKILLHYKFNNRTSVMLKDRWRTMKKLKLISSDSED

TRF2 = biological target: T3, TRF2 (UniProt Q15554); assay: single-molecule DNA tightrope; conditions: Tightrope assays at 75-225 mM ionic strength (buffer, pH and temperature not in the material); AFM samples diluted 10-fold in 25 mM NaOAc, 25 mM HEPES-KOH pH 7.
T3 sequence: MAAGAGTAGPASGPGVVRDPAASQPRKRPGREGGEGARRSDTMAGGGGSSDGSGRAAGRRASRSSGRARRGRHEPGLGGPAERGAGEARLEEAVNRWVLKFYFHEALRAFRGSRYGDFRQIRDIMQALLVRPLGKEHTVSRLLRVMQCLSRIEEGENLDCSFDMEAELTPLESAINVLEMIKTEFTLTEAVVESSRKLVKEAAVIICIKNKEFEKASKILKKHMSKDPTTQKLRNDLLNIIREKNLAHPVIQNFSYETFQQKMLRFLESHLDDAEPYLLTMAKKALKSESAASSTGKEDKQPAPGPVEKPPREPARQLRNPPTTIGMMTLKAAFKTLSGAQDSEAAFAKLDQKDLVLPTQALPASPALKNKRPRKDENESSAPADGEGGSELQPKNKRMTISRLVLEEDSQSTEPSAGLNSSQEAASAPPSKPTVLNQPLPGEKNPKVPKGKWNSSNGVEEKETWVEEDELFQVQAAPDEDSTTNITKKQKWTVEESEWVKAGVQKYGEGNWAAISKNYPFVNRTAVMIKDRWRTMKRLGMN

TRF2ΔB [2] = biological target: T1, TRF2ΔB; assay: single-molecule DNA tightrope; conditions: 125 mM ionic strength; Tightrope assays at 75-225 mM ionic strength (buffer, pH and temperature not in the material); AFM samples diluted 10-fold in 25 mM NaOAc, 25 mM HEPES-KOH pH 7.
TRF2 Myb domain = assay: cited; conditions: Tightrope assays at 75-225 mM ionic strength (buffer, pH and temperature not in the material); AFM samples diluted 10-fold in 25 mM NaOAc, 25 mM HEPES-KOH pH 7.; cited from earlier work
TRF1 Myb domain = assay: cited; conditions: Tightrope assays at 75-225 mM ionic strength (buffer, pH and temperature not in the material); AFM samples diluted 10-fold in 25 mM NaOAc, 25 mM HEPES-KOH pH 7.; cited from earlier work

T270 telomeric region (TTAGGG)270
binding signal (% of DNA-bound QDs at telomeric region) (TRF2ΔB [1]): 66 | binding signal (s (attached lifetime)) (TRF1): 17.3 and 9.2 | binding signal (s (attached lifetime)) (TRF2): 14.8 and 10.3

TTAGGGTTAGGGTTAGGGTTAGGGTTAGGGTTAGGGTTAGGGTTAGGGTTAGGGTTAGGG (double strand) [Tel10 telomeric region (TTAGGG)10]
binding signal (s (attached lifetime)) (TRF2): 6.7

lambda DNA
binding signal (QDs per field of view (TRF2 13.3)) (TRF2ΔB [2]): 1.4

telomeric DNA of cited Myb domain study
Kd (TRF2 Myb domain): 0.75 µM | Kd (TRF1 Myb domain): 0.2 µM
